Positions count from the first letter of the chain named.

The source of these data is paper PMC6555819, “Comprehensive study of nuclear receptor DNA binding provides a revised framework for understanding receptor specificity”.

B1: NRC3_wobSeed41_DR1_C24G_o1 (dsDNA)
DNA 1: GCATATGTAGGTTAAGGGTCATTGAGGTTGGTTCGCGCGATTGACAGCGTAGAATGAAGG
DNA 2: CCTTCATTCTACGCTGTCAATCGCGCGAACCAACCTCAATGACCCTTAACCTACATATGC
B2: NRC3_wobSeed28_DR1_T26G_o1 (dsDNA)
DNA 1: GCCCTACTGGGCCAAAGGTCATTGAGTCCAATGCTCGCGATTGACAGCGTAGAATGAAGG
DNA 2: CCTTCATTCTACGCTGTCAATCGCGAGCATTGGACTCAATGACCTTTGGCCCAGTAGGGC
B3: NRC3_wobSeed76_DR3_C12T_o1 (dsDNA)
DNA 1: GCCCTACTGGGTCAAAAAGGTCATTGATGCCGATAAGCGATTGACAGCGTAGAATGAAGG
DNA 2: CCTTCATTCTACGCTGTCAATCGCTTATCGGCATCAATGACCTTTTTGACCCAGTAGGGC
B4: NRC3_wobSeed92_DR3_A20T_o1 (dsDNA)
DNA 1: GCAGAATGAGGTTATTAAGTTCAGGGAATTGCGGTCGCGATTGACAGCGTAGAATGAAGG
DNA 2: CCTTCATTCTACGCTGTCAATCGCGACCGCAATTCCCTGAACTTAATAACCTCATTCTGC
B5: NRC3_wobSeed92_DR3_A20G_o1 (dsDNA)
DNA 1: B4 DNA 1 with T20G
DNA 2: B4 DNA 2 with A41C
B6: NRC3_wobSeed61_DR2_T24G_o1 (dsDNA)
DNA 1: GCCGTCCAAGGTCAGCAGGTCAGGGAAAGCGACGTGGCGATTGACAGCGTAGAATGAAGG
DNA 2: CCTTCATTCTACGCTGTCAATCGCCACGTCGCTTTCCCTGACCTGCTGACCTTGGACGGC
B7: NRC3_wobSeed61_DR2_o1 (dsDNA)
DNA 1: B6 DNA 1 with G24T
DNA 2: B6 DNA 2 with C37A
B8: NRC3_wobSeed61_DR2_G25A_o1 (dsDNA)
DNA 1: B6 DNA 1 with G24T, G25A
DNA 2: B6 DNA 2 with C36T, C37A
B9: NRC3_wobSeed94_DR3_G23A_o1 (dsDNA)
DNA 1: GCCTACCAAGGTGAACAAGGTCATTGATTACTATTCGCGATTGACAGCGTAGAATGAAGG
DNA 2: CCTTCATTCTACGCTGTCAATCGCGAATAGTAATCAATGACCTTGTTCACCTTGGTAGGC
B10: NRC3_wobSeed94_DR3_A17G_o1 (dsDNA)
DNA 1: B9 DNA 1 with A17G, A23G
DNA 2: B9 DNA 2 with T38C, T44C
B11: NRC3_wobSeed94_DR3_G13T_o1 (dsDNA)
DNA 1: B9 DNA 1 with G13T, A23G
DNA 2: B9 DNA 2 with T38C, C48A
B12: NRC3_wobSeed50_DR2_G7A_o1 (dsDNA)
DNA 1: GCCCTAATTGGTCAGGAGGTCACACACCGGATATGAGCGATTGACAGCGTAGAATGAAGG
DNA 2: CCTTCATTCTACGCTGTCAATCGCTCATATCCGGTGTGTGACCTCCTGACCAATTAGGGC
B13: NRC3_wobSeed113_DR4_A14C_o1 (dsDNA)
DNA 1: GCATATGTAGGTTCGCTGGGGTCATTCAGACTAGGCGCGATTGACAGCGTAGAATGAAGG
DNA 2: CCTTCATTCTACGCTGTCAATCGCGCCTAGTCTGAATGACCCCAGCGAACCTACATATGC
B14: NRC3_wobSeed65_DR2_C25G_o1 (dsDNA)
DNA 1: GCATATGTAGGTTATCGGGTCATTGAGTTTGCGCATGCGATTGACAGCGTAGAATGAAGG
DNA 2: CCTTCATTCTACGCTGTCAATCGCATGCGCAAACTCAATGACCCGATAACCTACATATGC
B15: NRC3_wobSeed65_DR2_C16G_o1 (dsDNA)
DNA 1: B14 DNA 1 with C16G, G25C
DNA 2: B14 DNA 2 with C36G, G45C
B16: NRC3_wobSeed69_DR2_T5A_o1 (dsDNA)
DNA 1: GCAGACAAAGTTCACTAGGTAACGTAAGATTCAGCTGCGATTGACAGCGTAGAATGAAGG
DNA 2: CCTTCATTCTACGCTGTCAATCGCAGCTGAATCTTACGTTACCTAGTGAACTTTGTCTGC
B17: NRC3_wobSeed66_DR2_o1 (dsDNA)
DNA 1: GCAATACAGGGTCACTAGGCCAGAGTAGGTACGAATGCGATTGACAGCGTAGAATGAAGG
DNA 2: CCTTCATTCTACGCTGTCAATCGCATTCGTACCTACTCTGGCCTAGTGACCCTGTATTGC
B18: NRC3_wobSeed66_DR2_G9A_o1 (dsDNA)
DNA 1: B17 DNA 1 with G9A
DNA 2: B17 DNA 2 with C52T
B19: NRC3_wobSeed124_DR5_C17T_o1 (dsDNA)
DNA 1: GCCCTACTGGGCCATTTAGAGGTCATTGATCATATGGCGATTGACAGCGTAGAATGAAGG
DNA 2: CCTTCATTCTACGCTGTCAATCGCCATATGATCAATGACCTCTAAATGGCCCAGTAGGGC
B20: NRC3_wobSeed124_DR5_A29G_o1 (dsDNA)
DNA 1: B19 DNA 1 with T17C, A29G
DNA 2: B19 DNA 2 with T32C, A44G
B21: NRC3_wobSeed72_DR2_A6C_o1 (dsDNA)
DNA 1: GCTCGCGTAGGTTACGGGGGCATTCAGGGATGAAGAGCGATTGACAGCGTAGAATGAAGG
DNA 2: CCTTCATTCTACGCTGTCAATCGCTCTTCATCCCTGAATGCCCCCGTAACCTACGCGAGC
B22: NRC3_wobSeed101_DR4_o1 (dsDNA)
DNA 1: GCCCTTACGGGTCACTCCAGGTTATAGCATCGGAGTGCGATTGACAGCGTAGAATGAAGG
DNA 2: CCTTCATTCTACGCTGTCAATCGCACTCCGATGCTATAACCTGGAGTGACCCGTAAGGGC
B23: NRC3_wobSeed81_DR3_A13C_o1 (dsDNA)
DNA 1: GCATCTCTAGGTCACCAAGTTCAGTGAATGCCGAACGCGATTGACAGCGTAGAATGAAGG
DNA 2: CCTTCATTCTACGCTGTCAATCGCGTTCGGCATTCACTGAACTTGGTGACCTAGAGATGC
B24: NRC3_wobSeed22_DR0_T25C_o1 (dsDNA)
DNA 1: GCTTACCAAGGTGAAGGTCGTTGACCCCTCTGTAGAGCGATTGACAGCGTAGAATGAAGG
DNA 2: CCTTCATTCTACGCTGTCAATCGCTCTACAGAGGGGTCAACGACCTTCACCTTGGTAAGC
B25: NRC3_wobSeed82_DR3_G22C_o1 (dsDNA)
DNA 1: GCATCGAAAGGTCGACGAGGTCAGTATACACCGTTTGCGATTGACAGCGTAGAATGAAGG
DNA 2: CCTTCATTCTACGCTGTCAATCGCAAACGGTGTATACTGACCTCGTCGACCTTTCGATGC
B26: NRC3_wobSeed74_DR3_T9G_o1 (dsDNA)
DNA 1: GCTCTAGTGGGTCACGGAGGTCACACACGACGGGTAGCGATTGACAGCGTAGAATGAAGG
DNA 2: CCTTCATTCTACGCTGTCAATCGCTACCCGTCGTGTGTGACCTCCGTGACCCACTAGAGC
B27: NRC3_wobSeed74_DR3_G20T_o1 (dsDNA)
DNA 1: B26 DNA 1 with G9T, G20T
DNA 2: B26 DNA 2 with C41A, C52A
B28: NRC3_wobSeed74_DR3_G16C_o1 (dsDNA)
DNA 1: B26 DNA 1 with G9T, G16C
DNA 2: B26 DNA 2 with C45G, C52A
B29: NRC3_wobSeed119_DR4_C7A_o1 (dsDNA)
DNA 1: GCGGAAAGAGGGCATTCGAGTTGATAGCATGGCGATGCGATTGACAGCGTAGAATGAAGG
DNA 2: CCTTCATTCTACGCTGTCAATCGCATCGCCATGCTATCAACTCGAATGCCCTCTTTCCGC
B30: NRC3_wobSeed77_DR3_G20T_o1 (dsDNA)
DNA 1: GCACTTACGGGTCAACGAGTTTATAGCACGCGTATAGCGATTGACAGCGTAGAATGAAGG
DNA 2: CCTTCATTCTACGCTGTCAATCGCTATACGCGTGCTATAAACTCGTTGACCCGTAAGTGC
B31: NRC3_wobSeed95_DR3_G12T_o1 (dsDNA)
DNA 1: GCAGAACGAGGTCAATGAGTTGATAGCACGGGTGGCGCGATTGACAGCGTAGAATGAAGG
DNA 2: CCTTCATTCTACGCTGTCAATCGCGCCACCCGTGCTATCAACTCATTGACCTCGTTCTGC
B32: NRC3_wobSeed95_DR3_G22T_o1 (dsDNA)
DNA 1: B31 DNA 1 with T12G, G22T
DNA 2: B31 DNA 2 with C39A, A49C
B33: NRC3_wobSeed95_DR3_A9G_o1 (dsDNA)
DNA 1: B31 DNA 1 with A9G, T12G
DNA 2: B31 DNA 2 with A49C, T52C

In the series the target is VDR:RXRa (Homo sapiens, UniProt P11473;P19793 full;full). Nature of the series: no ligand; PBM; 270 nM : 90 nM RXRa; PBS pH 7.4, 2% milk, 0.02% Triton X-100, 1 mM DTT, BSA, 0.4 mg/ml salmon testes DNA. Conditions: tags: His kept;His cleaved; copies: 1;1; label: surface-attached array probe. In a few lines: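 Random background probes are the reference for binding z-scores. These scores derive from regression-normalized fluorescence on custom Agilent 4×180K protein-binding microarrays incubated 1 h with ligand-free nuclear receptor dimers. Binding was detected with antibodies against each partner (one per run).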
Chain of VDR:RXRa (P11473 whole entry, chain 1 of 2): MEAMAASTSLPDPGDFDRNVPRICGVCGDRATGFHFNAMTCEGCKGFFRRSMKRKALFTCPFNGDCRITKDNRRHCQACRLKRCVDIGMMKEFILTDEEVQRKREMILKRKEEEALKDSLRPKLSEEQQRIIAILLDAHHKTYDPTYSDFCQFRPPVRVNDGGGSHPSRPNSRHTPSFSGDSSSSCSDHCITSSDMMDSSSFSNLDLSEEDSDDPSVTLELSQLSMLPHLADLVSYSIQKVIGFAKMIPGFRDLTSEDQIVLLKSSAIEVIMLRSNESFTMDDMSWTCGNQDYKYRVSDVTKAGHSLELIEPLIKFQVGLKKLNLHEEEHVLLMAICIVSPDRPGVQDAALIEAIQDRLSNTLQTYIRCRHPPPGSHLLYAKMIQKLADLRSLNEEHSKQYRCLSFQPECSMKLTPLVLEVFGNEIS
Chain of VDR:RXRa (P19793 whole entry, chain 2 of 2): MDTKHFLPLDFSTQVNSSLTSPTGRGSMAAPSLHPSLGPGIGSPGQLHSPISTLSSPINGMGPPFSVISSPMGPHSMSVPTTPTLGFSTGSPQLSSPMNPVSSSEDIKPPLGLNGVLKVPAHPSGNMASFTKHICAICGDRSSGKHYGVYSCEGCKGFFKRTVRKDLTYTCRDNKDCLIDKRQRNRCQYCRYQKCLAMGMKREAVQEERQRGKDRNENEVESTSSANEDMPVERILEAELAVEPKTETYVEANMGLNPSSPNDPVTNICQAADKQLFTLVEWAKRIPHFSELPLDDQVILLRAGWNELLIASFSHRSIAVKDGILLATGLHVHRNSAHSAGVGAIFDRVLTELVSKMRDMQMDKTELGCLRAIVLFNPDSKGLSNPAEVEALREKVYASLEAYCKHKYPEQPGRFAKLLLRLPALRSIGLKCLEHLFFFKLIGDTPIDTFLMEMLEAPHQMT
For the molecule B1, the binding signal is 6.5 PBM z-score against 500 random probes.

Consider B2, for which the binding signal is 7.34 PBM z-score against 500 random probes.

For the molecule B3, the binding signal was 6.93 PBM z-score against 500 random probes.

As for B4, the binding signal is 6.9 PBM z-score against 500 random probes.

On to B5, for which the binding signal was 6.76 PBM z-score against 500 random probes.

As to B6, the binding signal was 4.03 PBM z-score against 500 random probes.

With B7, the binding signal is 3.97 PBM z-score against 500 random probes.

Regarding B8, the binding signal is 4 PBM z-score against 500 random probes.

B9: the binding signal was 7.03 PBM z-score against 500 random probes.

B10: the binding signal was 6.62 PBM z-score against 500 random probes.

Take B11: the binding signal is 6.93 PBM z-score against 500 random probes.

Take B12: the binding signal is 3.96 PBM z-score against 500 random probes.

As for B13, the binding signal was 7.03 PBM z-score against 500 random probes.

Take B14: the binding signal was 6.9 PBM z-score against 500 random probes.

B15: the binding signal was 6.73 PBM z-score against 500 random probes.

For the molecule B16, the binding signal is 3.85 PBM z-score against 500 random probes.

For the molecule B17, the binding signal was 4.15 PBM z-score against 500 random probes.

On to B18, for which the binding signal is 4.1 PBM z-score against 500 random probes.

For the molecule B19, the binding signal is 3.9 PBM z-score against 500 random probes.

Take B20: the binding signal is 3.87 PBM z-score against 500 random probes.

Turning to B21, the binding signal is 3.92 PBM z-score against 500 random probes.

As to B22, the binding signal is 4.06 PBM z-score against 500 random probes.

Consider B23, for which the binding signal was 7.59 PBM z-score against 500 random probes.

Regarding B24, the binding signal was 4.04 PBM z-score against 500 random probes.

For the molecule B25, the binding signal is 7.66 PBM z-score against 500 random probes.

B26: the binding signal is 7.63 PBM z-score against 500 random probes.

For B27, the binding signal was 6.57 PBM z-score against 500 random probes.

As to B28, the binding signal was 6.63 PBM z-score against 500 random probes.

For the molecule B29, the binding signal is 4.08 PBM z-score against 500 random probes.

In the case of B30, the binding signal is 8.27 PBM z-score against 500 random probes.

Take B31: the binding signal is 7.63 PBM z-score against 500 random probes.

On to B32, for which the binding signal is 6.73 PBM z-score against 500 random probes.

For B33, the binding signal is 6.59 PBM z-score against 500 random probes.
